{"source": "the nanobody polyreactivity screen of Harvey et al. (2022)"}
{"assay": "yeast display, Sf9 membrane polyspecificity reagent, FACS + sequencing; frameworks hold sequencing errors", "summary_of_the_method": "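Galactose induction of a Saccharomyces cerevisiae BJ5465 synthetic nanobody display library ran 36–48 hours. The cells were then stained for 1 hour at 4 °C with 10% biotinylated, detergent-solubilized Sf9 membrane reagent, pulled down on streptavidin microbeads and FACS-sorted into low and high (top ~1%) gates on expression and reagent-binding fluorescence. Labels for polyreactivity follow the gate of origin.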"}
{"sequence": "QVQLVESAGGLVQAGGSLRLSCAASGSTFGANAMGWYRQAPGKEREYVAAISRSGVRTYYADSVKGRFTISRDNAKNTVYLQMNSLKPEDTAVYYCAADGYWWTYTRYDYWGQGTQVTVSS", "polyreactivity (PSR sort gate)": "low polyreactivity"}
{"sequence": "QVQLVESAGGLVQAGGSLRLSCAASGYTFKLYAMGWSRQAPGKERELVAAIRQRGGTTYYADSVKGRVTISRDNAKNTVYLQMNSLKPEDTAVYYCAVRFYLPNANGGYYYWGQGTQVTVSS", "polyreactivity (PSR sort gate)": "high polyreactivity"}
{"sequence": "QVQLVESAGGLVQAGGSLRLSCAPSGRTFYGNAMGWYRQAPGTERELVAAISSRGGSTYYADSVKGRFTISRDNANNTVYLQMNSLKPEDTAVYYCNVANGLSQVYRYNYWGQGTQVTVSS", "polyreactivity (PSR sort gate)": "high polyreactivity"}
{"sequence": "QVQLVESAGGLVQAGGSLRLSCASSGFTFKANAMGWYRQAPGKERELVAAISRRGSSTYYADSVKGRFTISRDNAKNTVYLQMNSLKPEDTAVYYCNTKPRAGRTKLGYWGQGTQVTVSS", "polyreactivity (PSR sort gate)": "high polyreactivity"}
{"sequence": "QVQLVESAGGLVQAGGSLRLSCPASGLTFGSYALGWYRQAPGKEREFVAAISWRGGSTYYADSVKGRFTISRDNAKNTVYLQMNSLKPEDTAVYYCAAPVTYGGSPYKYYYWGQGTQVTVSS", "polyreactivity (PSR sort gate)": "high polyreactivity"}
{"sequence": "QVQLVESAGGLVQAGGSLRLSCPASGRIFSIYGMGWYRQAPGKERELVAVISGSVGITYYADSVKGRFTISRDNAKNTVYLQMNSLKPEDTAVYFCNAKVRRRKYDYWGQGTQVTVSS", "polyreactivity (PSR sort gate)": "high polyreactivity"}
{"sequence": "QVQLVESAGGLVQAGGSLRLSCPASGRTFFPYAMGWYRQPPGQEREFVAAITNTDDSTYYADSVKGRFTISRDNAKNTVYLQMNSLKPEDTAVYYCNAGDTQIRFYYWGQGSQVTVSS", "polyreactivity (PSR sort gate)": "low polyreactivity"}
{"sequence": "QVQLVESAGGLVQAGGSLRLSFAASGFTFAKYAMGWYRQAPGKERELVAGISRRGGSTYYADSVKGRFTISRDNAKNTVYLQMNSLKPEDTAVYYCNADLVRPGYYRYDYWGQGTQVTVSS", "polyreactivity (PSR sort gate)": "high polyreactivity"}
{"sequence": "QVQLVESAGGLVQAGGSLRLTCAASGLTFRVFAMGWYRQAPGKERELVAAISSRGGSTYYADSVKGRFTISRDNAKYTVYLQMNSLKPEDTAVYDCYARGQGGYWGQGTQVTVSS", "polyreactivity (PSR sort gate)": "high polyreactivity"}
{"sequence": "QVQLVESAGGLVQAGGSLRLTCAASGRTYFPYAMGLYRQAPGKERELVAAITWSATTTYYADSVKGRFTISRDNAKNTVYLQMISLKPEDTAVYYCNARGDYWGQGTQVTVSS", "polyreactivity (PSR sort gate)": "low polyreactivity"}
{"sequence": "QVQLVESAGGLVQAGGSLSLSCAASGGTFSTNAMGWYRQAPGQERELVAAISLSGGRTYADSVKGRFTISLDNAKNTVYLQMNSLKPEDTAVYYCNADSAGITRARSELDYWGQGTQVTVSS", "polyreactivity (PSR sort gate)": "low polyreactivity"}
{"sequence": "QVQLVESAGGLVQAGGSLSLSCAASGSTFASYAMGWYRQAPGKEREFVAAITRSGTSTYYADSVKGRFTISRDNAKNTVYLQMNSLKPEDTAVYYCNATRRTVGFGYWGQGTQVTVSS", "polyreactivity (PSR sort gate)": "high polyreactivity"}
{"sequence": "QVQLVESAGGLVQAGRSHRLSFAASGSIFYHNAMGWYRQAPGKERELVAAISGRGGSTYYADSVKGRFTISRDNAKNTVYLQMNSLKPEDTAVYYCAADARYQNGGLYYWGQGTQVTVSS", "polyreactivity (PSR sort gate)": "high polyreactivity"}
{"sequence": "QVQLVESAGGLVQAGRSLRLSCAASGRNFLGNDMGWYRQAPGKERELVAAISYGDGSTYYADSVKGRFTISRDNAKNTVYLQMNSLKPEDTAVYYCAAERYTIPPIYDYWGQGTQVTVSS", "polyreactivity (PSR sort gate)": "low polyreactivity"}
{"sequence": "QVQLVESAGGLVQAGVSLRISCAASGSTIRHYAMGWYRQAPRKERELVAAISSGARTYYADSEKGRFTISRDNAKNTVYLQMNSLKPEDTAVYYRAARYNGYANPYYYWGQGTQVTVSS", "polyreactivity (PSR sort gate)": "high polyreactivity"}
{"sequence": "QVQLVESAGGLVQAGVSLRLSCAASGFTSSRNAMGWYRQAPGKERELVATISSGGDTYYADSVKGRFTISRDNAKNTVYLQMNTLKPEDTAVYYCNKDPLYAWGYDYWGQGTQVTVSS", "polyreactivity (PSR sort gate)": "low polyreactivity"}
{"sequence": "QVQLVESAGGLVQARGSLRLSCAASGINFDWYTMGWYRKAPGKERELVAAISWRGGRTYYADSVKGRFTISRDNAKNTVYLQMNSLKPEDTAVYYCAAEAPVQPFYVFNTGIYELDYWGQGTQVTVSS", "polyreactivity (PSR sort gate)": "low polyreactivity"}
{"sequence": "QVQLVESAGGLVQEGGSLRIRCAASGRIYQLYTMGGYRQAPGKERELDAAITTGTSTSYAYSVKGRFTISRDNAKNTVYLLMYSLKPVDTAFYFCNKGSVSYYSVFVPYESDYGGQGTQVTVSS", "polyreactivity (PSR sort gate)": "low polyreactivity"}
{"sequence": "QVQLVESAGGLVQEGGSLRLICAASGSIFEPYAMGWYRQAPGKERELVAAIRWSGGSTYYADSVKGRFTISRDNAKNTVYLQMNRLIPEDTAVYYCAKYFPAGYYYWGQGTQVTVSS", "polyreactivity (PSR sort gate)": "low polyreactivity"}
{"sequence": "QVQLVESAGRLVQEGGSLRLRSAASGSIFKYNTMGWYRQAAGKERELVAGISYGGRTYYADSVKGRFTISRDNAKNTVYLHMNSLKPEYTAVYYCAARWSYFKTTHRNNYWGQGTQVTVSS", "polyreactivity (PSR sort gate)": "high polyreactivity"}
{"sequence": "QVQLVESARGLVQAGGSLRLSCAASGYTIRANAMGWYRQAPGKEREFVAAISRSGGSTYYADSVKGRFTISRDNAKNTVYLQMNCLKPEDTAVYYCNNLYPYYATHTTRGLDYWGQGTQVTVSS", "polyreactivity (PSR sort gate)": "high polyreactivity"}
{"sequence": "QVQLVESAVGLVQAGGSHRLSCAASAGTFYFYAMGWYRQAPGKERELVATITRGGSTYYADSVKGRFTISRDNAKNTVYLQMNSLNPEDTAVYYCAARQYSRRRSPVSTWYYYWGQGTQVTVSS", "polyreactivity (PSR sort gate)": "high polyreactivity"}
{"sequence": "QVQLVESCGALVQAGGSLRLICAGSGSIFHVNAMGWSRPAHGKESELVAGISDGGSTYYADSVKGRFTISRYYAKNTVYFQMNSLKPEDSGVYYWATDYPSRWHVHRGFQGKYDYWGQGTQVTLSS", "polyreactivity (PSR sort gate)": "low polyreactivity"}
{"sequence": "QVQLVESCGCLVQAGGSLRLSCAASGRTFFHYDMGWYRQAPGKDRELEAGISSGGRTKYADSVKGRFTISRDNAKNTVYLQMNSLNPEDTAAYYCAASYIVWLTRGAPRKRFDYWGQGSQVTVSS", "polyreactivity (PSR sort gate)": "high polyreactivity"}
{"sequence": "QVQLVESCGGIVQAGGSLRLRCAASGFIFEYYAMVWYRQAPGKERELVAAINWGGGRTRYADSVKGRFTISPYNAKNTVYLQMNSLKPEDTAVYYCAARYGYRYDSWGQGTQVTVSS", "polyreactivity (PSR sort gate)": "high polyreactivity"}
{"sequence": "QVQLVESCGGLFQAGGSLRLSCAPSGRTSWVYAMGWYRQAPAKERELVASIRKRTVVYADSVKGRFTISRENAKNTVYLQMNSLKPEETAVYYCNTDYSSTSQWRAANYWGQGTQVTVSS", "polyreactivity (PSR sort gate)": "high polyreactivity"}
{"sequence": "QVQLVESCGGLIQAGGSLRLSCAASGSTFPYYAMGWYRQAPGKEREFVAAIRFSGSSTYYADSVKGRFTISRDNAMNTVFLQMNRLKPEDTAVYYCATDYWLPSYSYDYWGQGTQVTVSS", "polyreactivity (PSR sort gate)": "low polyreactivity"}
{"sequence": "QVQLVESCGGLVQAGGSHRLSCDASGRIFTGYAMGWYRQAPGKERELVAAISWGGGRTYYADSVKGRFTISRDNAKNTVYLQMNSLKPEDTADYYCNRAAGGRSTPYYYWGQGTQVTVSS", "polyreactivity (PSR sort gate)": "high polyreactivity"}
{"sequence": "QVQLVESCGGLVQAGGSLRLSCAASGFTFTWNAMGWYRQAPGKERELVAGITRGGSTNYADSVKGRFTISRDNAKNTVYLQMNSLKPEDTAVYYCNVSFYFHHAGYDYWGQGTQVTVSS", "polyreactivity (PSR sort gate)": "low polyreactivity"}
{"sequence": "QVQLVESCGGLVQAGGSLRLSCAASGFTFYLYAMGWYRQAPGQERELVAAISSRGGTTYYADSVKGRFTISRDNAKNTVYLQMNSLKPEDTAVYYCNVARFYHIYDYWGQGTQVTVSS", "polyreactivity (PSR sort gate)": "high polyreactivity"}
{"sequence": "QVQLVESCGGLVQAGGSLRLSCAASGITFGRNTMGWYRQAPGKERELVAAIDSGGNTYADSVKGRFTISRDNAKNTVYLQMNSLKPEDTAVYYCAVDGGEFSSYGYWGQGTQVTVSS", "polyreactivity (PSR sort gate)": "low polyreactivity"}
{"sequence": "QVQLVESCGGLVQAGGSLRLSCAASGLTFIFNAMGWYRQAPGKEREFVADISSGVNTNYADSVKGRFTISRDNAKNTVYLQMNSLKPEDTAVYYCNKDVNAYGGASIRGYTMYYWGQGTQVTVSS", "polyreactivity (PSR sort gate)": "low polyreactivity"}
{"sequence": "QVQLVESCGGLVQAGGSLRLSCAASGRIFSDYAMGWYRQAPGKERELVATITSGDSTNYADSVKGRFTISRDNAKNTVYLQMNSLKPEDTAVYYCNADRFADYDYWGQGTQVTVSS", "polyreactivity (PSR sort gate)": "low polyreactivity"}
{"sequence": "QVQLVESCGGLVQAGGSLRLSCAASGRTFFGYAMGGYRQAPGKERELVAAINWGGASTYYADSVKGRFTISRDNAKNTVYLQMNSLKPEETAVYYCAADSVPSRPTYGRYDYWGQGTQVTVSS", "polyreactivity (PSR sort gate)": "low polyreactivity"}
{"sequence": "QVQLVESCGGLVQAGGSLRLSCAASGRTFYFYAMGWYRQAPGKERELVAAISSTGGSTYYADSVKGRFTISRDNAKNTVYIQMNSLKPEDTAVYYCAARKSPRGRGEFYWGQGTQVTVSS", "polyreactivity (PSR sort gate)": "high polyreactivity"}
{"sequence": "QVQLVESCGGLVQAGGSLRLSCAASGSIIFPYALGWYRQAPGKERELVAAISWSGGRTYYADSVKGRFTISRDNAKNTVYLQMNSLKPEDTAVYYCAADGYPYFYGDFDYWGQGTQVNVSS", "polyreactivity (PSR sort gate)": "high polyreactivity"}
{"sequence": "QVQLVESCGGLVQAGGSLRLSCAASGSTFVYYAMGWYRQAPGKERELVAAISSGGSTYYADSVKGRFTISRDNAKNTVFLQMNSLKPEDTAVYDCAAKFGWGYTTYYYCGQGTQVTVSS", "polyreactivity (PSR sort gate)": "high polyreactivity"}
{"sequence": "QVQLVESCGGLVQAGGSLRLSCAPSGSIFVCYAMGWYRQAPWKEREFVAAITSGRGTYYADSVKGRFTRSRDNAQITVYLQMNSLKPEDTEVYYCNTVWRTRSFRAPAVAYGYWGQGTQVTVSS", "polyreactivity (PSR sort gate)": "high polyreactivity"}
{"sequence": "QVQLVESCGGLVQAGGSLRLSCDASVSIFYRNAMGWYRQAPGKERELVAAIRSGGSTNYADSVKGRFTISRDNAKNTVYLQMNSLKPEDTAVYYCAAGYFWRQYKMGYWGQGTQVTVSS", "polyreactivity (PSR sort gate)": "high polyreactivity"}
{"sequence": "QVQLVESCGGLVQAGGSLRLSSAASGRIFYAYVMGWYRQAPGKERELVADITSSGSTNYADTVKGRFTISRDNAKKTVYLQLISLKQEDTAVFYCAKVPYGYQVRRNFGYWGQGTQVTVSS", "polyreactivity (PSR sort gate)": "low polyreactivity"}
{"sequence": "QVQLVESDGGLDQAGRSLRLSFAASGTIFDPYSMGWYRQEPGKERELVAAISWSDSSTYYADSVKGRFTISRDNAKNTVYLQKNSLKPEDTAVYYCASDYDLYFYLYEYWGQGTQVTVSS", "polyreactivity (PSR sort gate)": "high polyreactivity"}
{"sequence": "QVQLVESGAALVQAGGSLRLSCAASGRTFWFNAMGWYRQPPGKERELVASISLSVGSTYYADSVKGRFTISRDNAKNTVYLQMNSLKAEDTAVYNCAADQTVHISSYDYWGQGTQVTVSS", "polyreactivity (PSR sort gate)": "low polyreactivity"}
{"sequence": "QVQLVESGACLVQAGGSLRLSCAASGFIFPRNAMGWYRQAPGKERELVAAITKSGGSTYYADSVKGRFTISRDNAKNTVYLQMNSLKPEDTAVYYCAATDSATELYYRMDYWGQGTQVTVSS", "polyreactivity (PSR sort gate)": "high polyreactivity"}
